Measured values from patent publication US20040209257.

System: T1, AcuI restriction endonuclease (recombinant, clone #288) V1M (Acinetobacter calcoaceticus SRW4)
T1 sequence: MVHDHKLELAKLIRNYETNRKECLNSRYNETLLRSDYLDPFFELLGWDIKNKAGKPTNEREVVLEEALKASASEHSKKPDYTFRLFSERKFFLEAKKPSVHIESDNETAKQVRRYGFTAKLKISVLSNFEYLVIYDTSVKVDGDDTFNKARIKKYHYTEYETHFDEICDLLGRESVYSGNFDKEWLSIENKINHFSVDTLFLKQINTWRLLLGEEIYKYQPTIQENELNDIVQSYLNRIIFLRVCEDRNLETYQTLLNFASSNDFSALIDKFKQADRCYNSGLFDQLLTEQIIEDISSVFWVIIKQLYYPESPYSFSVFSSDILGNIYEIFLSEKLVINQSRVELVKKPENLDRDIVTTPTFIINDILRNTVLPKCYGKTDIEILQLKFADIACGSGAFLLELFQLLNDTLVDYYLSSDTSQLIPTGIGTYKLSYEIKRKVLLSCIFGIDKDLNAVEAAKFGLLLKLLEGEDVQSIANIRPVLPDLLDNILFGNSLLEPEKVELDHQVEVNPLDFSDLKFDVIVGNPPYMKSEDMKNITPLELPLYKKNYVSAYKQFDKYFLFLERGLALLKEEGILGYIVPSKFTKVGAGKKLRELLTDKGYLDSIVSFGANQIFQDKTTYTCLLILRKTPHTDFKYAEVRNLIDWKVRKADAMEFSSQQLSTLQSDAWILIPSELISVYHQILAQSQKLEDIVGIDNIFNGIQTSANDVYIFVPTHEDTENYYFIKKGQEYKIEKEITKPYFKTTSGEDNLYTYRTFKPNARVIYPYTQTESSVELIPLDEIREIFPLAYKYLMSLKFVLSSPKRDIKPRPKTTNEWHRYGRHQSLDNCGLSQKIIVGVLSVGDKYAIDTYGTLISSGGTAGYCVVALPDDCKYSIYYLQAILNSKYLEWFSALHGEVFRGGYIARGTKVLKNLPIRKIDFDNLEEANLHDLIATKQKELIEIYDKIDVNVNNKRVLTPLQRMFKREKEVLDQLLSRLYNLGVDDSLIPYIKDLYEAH
Assay: cleavage_in_vitro
Settings: cell extract; lambda DNA substrate

Substance lambda DNA has an activity (units per gram wet cells) of 17400.
